{
  "source": "paper doi:10.1101/431106",
  "about": "“The architecture of the endoplasmic reticulum is regulated by the reversible lipid modification of the shaping protein CLIMP-63” (bioRxiv, 2018)",
  "key": {"[1]": {"biological_target": "the molecule itself", "assay": "cross-linking; disulfide trapping by an engineered cysteine; 35S Cys-Met 20 min pulse, immunoprecipitated using HA-beads, non-reducing SDS-PAGE, autoradiography; control cells and ZDHHC6 KO cells"}, "[2]": {"biological_target": "the molecule itself", "assay": "cross-linking; HeLa cells crosslinked 5 min at room temperature with 1mM BMOE, 1mM DSS or 0.025% glutaraldehyde; non-reducing SDS-PAGE, anti-CLIMP-63 blot"}},
  "data": [
    {"protein": "HA-CLIMP-63 V137C (natural protein, UniProt Q07065 1-602, looked up, Made to trap dimers through a disulfide bond; also called V137C CLIMP-63; V137C mutant; source: HeLa (control or ZDHHC6 KO), transfected 24 hours, total cell extracts or immunoprecipitated with HA-beads; not shown: HA, N-terminal, kept) MPSAKQRGSKGGHGAASPSEKGAHPSGGADDVAKKPPPAPQQPPPPPAPHPQQHPQQHPQNQAHGKGGHRGGGGGGGKSSSSSSASAAAAAAAASSSASCSRRLGRALNFLFYLALVAAAAFSGWCVHHVLEEVQQCRRSHQDFSRQREELGQGLQGVEQKVQSLQATFGTFESILRSSQHKQDLTEKAVKQGESEVSRISEVLQKLQNEILKDLSDGIHVVKDARERDFTSLENTVEERLTELTKSINDNIAIFTEVQKRSQKEINDMKAKVASLEESEGNKQDLKALKEAVKEIQTSAKSREWDMEALRSTLQTMESDIYTEVRELVSLKQEQQAFKEAADTERLALQALTEKLLRSEESVSRLPEEIRRLEEELRQLKSDSHGPKEDGGFRHSEAFEALQQKSQGLDSRLQHVEDGVLSMQVASARQTESLESLLSKSQEHEQRLAALQGRLEGLGSSEADQDGLASTVRSLGETQLVLYGDVEELKRSVGELPSTVESLQKVQEQVHTLLSQDQAQAARLPPQDFLDRLSSLDNLKASVSQVEADLKMLRTAVDSLVAYSVKIETNENNLESAKGLLDDLRNDLDRLFVKVEKIHEKV", "values": [
      {"measurement": "stoichiometry N", "setting": "[1]", "value": 2}
    ]},
    {"protein": "cytoskeleton-linking membrane protein 63 (CLIMP-63), endogenous (natural protein, human (endogenous in HeLa), UniProt Q07065 1-602, looked up, S-palmitoylation on Cys-100 in the majority (87%) of the cellular protein, CLIMP-63 (CKAP4), endogenous protein of HeLa cells; also called CKAP4; source: endogenous, HeLa cells (membrane fraction, total cell extracts, fixed cells)) MPSAKQRGSKGGHGAASPSEKGAHPSGGADDVAKKPPPAPQQPPPPPAPHPQQHPQQHPQNQAHGKGGHRGGGGGGGKSSSSSSASAAAAAAAASSSASCSRRLGRALNFLFYLALVAAAAFSGWCVHHVLEEVQQVRRSHQDFSRQREELGQGLQGVEQKVQSLQATFGTFESILRSSQHKQDLTEKAVKQGESEVSRISEVLQKLQNEILKDLSDGIHVVKDARERDFTSLENTVEERLTELTKSINDNIAIFTEVQKRSQKEINDMKAKVASLEESEGNKQDLKALKEAVKEIQTSAKSREWDMEALRSTLQTMESDIYTEVRELVSLKQEQQAFKEAADTERLALQALTEKLLRSEESVSRLPEEIRRLEEELRQLKSDSHGPKEDGGFRHSEAFEALQQKSQGLDSRLQHVEDGVLSMQVASARQTESLESLLSKSQEHEQRLAALQGRLEGLGSSEADQDGLASTVRSLGETQLVLYGDVEELKRSVGELPSTVESLQKVQEQVHTLLSQDQAQAARLPPQDFLDRLSSLDNLKASVSQVEADLKMLRTAVDSLVAYSVKIETNENNLESAKGLLDDLRNDLDRLFVKVEKIHEKV", "values": [
      {"measurement": "stoichiometry N", "setting": "[2]", "value": 2}
    ]}
  ]
}
